# B1: sNS1 (recombinant Zika virus NS1 purified from HEK293T culture supernatant) (other)
# chain: GPMDVGCSVDFSKKETRCGTGVFVYNDVEAWRDRYKYHPDSPRRLAAAVKQAWEEGICGISSVSRMENIMWKSVEGELNAILEENGVQLTVVVGSVKNPMWRGPQRLPVPVNELPHGWKAWGKSYFVRAAKTNNSFVVDGDTLKECPLKHRAWNSFLVEDHGFGVFHTSVWLKVREDYSLECDPAVIGTAVKGKEAAHSDLGYWIESEKNDTWRLKRAHLIEMKTCEWPKSHTLWTDGVEESDLIIPKSLAGPLSHHNTREGYRTQVKGPWHSEELEIRFEECPGTKVHVEETCGTRGPSLRSTTASGRVIEEWCCRECTMPPLSFRAKDGCWYGMEIRPRKEPESNLVRSMVTALEHHHHHHHH
# notes: Secreted form purified in the presence of 0.1% Triton X-100; Gel filtration: mainly hexamer (227 kDa); also called NS1[ZIKV]; soluble NS1 purified from cell culture supernatant
# B2: mNS1 (recombinant Zika virus NS1 purified from HEK293T cell lysate) (other)
# chain: B1 chain
# notes: Expressed in HEK293T from pTriEx-1; Gel filtration: mainly hexamer (212 kDa) with an extra monomer peak (44 kDa); SDS gives a dimer, heat gives a monomer; also called NS1[ZIKV]; membranous NS1 purified from cells
# Tests used:
# [1] = target: the molecule itself; assay: self-association; analytical gel filtration (Superdex 200)
# [2] = target: T1, bovine Apolipoprotein A-I (Bos taurus, UniProt P15497 25-265); assay: co-purification from cell culture supernatant on nickel affinity resin via the His tag of NS1
# T1 construct: also called bovine apolipoprotein A1; Apo AI[Bos taurus]
# T1 sequence: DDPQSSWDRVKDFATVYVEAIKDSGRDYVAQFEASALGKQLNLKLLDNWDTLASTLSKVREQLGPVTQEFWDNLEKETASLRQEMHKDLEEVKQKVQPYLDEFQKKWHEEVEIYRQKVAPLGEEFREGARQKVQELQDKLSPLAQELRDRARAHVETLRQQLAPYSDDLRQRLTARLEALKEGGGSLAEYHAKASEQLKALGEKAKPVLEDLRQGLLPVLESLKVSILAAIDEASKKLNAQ
Binder,binding result [1],binding result [2]
B1,binds,binds
B2,binds,–
